From US20120129776A1 come the findings set out here.

The assay has as its target MrgX1 (Mas-related G-protein coupled receptor member X1) (UniProt Q96LB2). The assay can be described thus: cell-based or functional assay.

Chain of MrgX1 (Mas-related G-protein coupled receptor member X1) (Q96LB2 whole entry): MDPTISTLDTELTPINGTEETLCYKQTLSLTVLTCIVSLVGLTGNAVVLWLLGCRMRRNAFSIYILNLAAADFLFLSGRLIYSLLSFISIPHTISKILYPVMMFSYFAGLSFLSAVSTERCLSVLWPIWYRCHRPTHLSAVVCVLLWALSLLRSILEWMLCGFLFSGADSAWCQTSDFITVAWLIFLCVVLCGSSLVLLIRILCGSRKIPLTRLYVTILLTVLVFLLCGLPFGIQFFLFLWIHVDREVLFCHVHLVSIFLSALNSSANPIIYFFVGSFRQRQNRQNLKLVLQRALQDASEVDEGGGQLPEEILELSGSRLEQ

As to “BAM22 (bovine adrenal medulla peptide 22) (from UniProt P01211 206-227)”, the EC50 of calcium flux dose response is > 50 nM.
